Data set [1] has as its target SARS-CoV-2 spike (S) protein, Omicron (SARS-CoV-2 Omicron variant) (UniProt P0DTC2). The data set is described as follows: SPR. The note with it: 5' di-DTPA (2 dithiol phosphoramidite) in printed sequence; not stated whether present in SPR analyte.
Data set [2] addresses SARS-CoV-2 spike (S) protein, alpha (SARS-CoV-2 alpha variant) (UniProt P0DTC2). The data set is described as follows: electrochemical aptasensor (DPV). The note with it: 5' di-DTPA (2 dithiol phosphoramidite groups), on gold with PEG 2000 backfill.
In data set [3] the target is SARS-CoV-2 spike (S) protein, Omicron (SARS-CoV-2 Omicron variant) (UniProt P0DTC2). As to the kind of experiment: electrochemical aptasensor (DPV). The note with it: 5' di-DTPA (2 dithiol phosphoramidite groups), on gold with PEG 2000 backfill.
In data set [4] the target is SARS-CoV-2 spike (S) protein, beta (SARS-CoV-2 beta variant) (UniProt P0DTC2). As to the kind of experiment: electrochemical aptasensor (DPV). Particulars: 5' di-DTPA (2 dithiol phosphoramidite groups), on gold with PEG 2000 backfill.

The values below come from article PMC11763500.

Values joined by “and” are separate entries in the source; they are usually repeats but may differ in a detail not shown here. Equal entries are not always repeated.

Sequence “GGGGGCGTCAAGCGGGGTCACATCGGAGTAGGGAATCTTG [C9t (SPR)]” showed a Kd in data set [1] of 14.6 nM. That is a double-digit nanomolar value.
As to “GGGGGCGTCAAGCGGGGTCACATCGGAGTAGGGAATCTTG [C9t di-DTPA (surface-immobilized)]”, the binding signal was 17.9 dI/I0 and 31.9 dI/I0 in data set [2]; 1240 dI/I0 in data set [3]; 27.1 dI/I0 and 43.6 dI/I0 in data set [4].
